# T1: His-LRS-(759-1176) (Homo sapiens (Human), UniProt Q9P2J5 759-1176)
# T1 construct: not shown: His tag from pET16a vector
# T1 sequence: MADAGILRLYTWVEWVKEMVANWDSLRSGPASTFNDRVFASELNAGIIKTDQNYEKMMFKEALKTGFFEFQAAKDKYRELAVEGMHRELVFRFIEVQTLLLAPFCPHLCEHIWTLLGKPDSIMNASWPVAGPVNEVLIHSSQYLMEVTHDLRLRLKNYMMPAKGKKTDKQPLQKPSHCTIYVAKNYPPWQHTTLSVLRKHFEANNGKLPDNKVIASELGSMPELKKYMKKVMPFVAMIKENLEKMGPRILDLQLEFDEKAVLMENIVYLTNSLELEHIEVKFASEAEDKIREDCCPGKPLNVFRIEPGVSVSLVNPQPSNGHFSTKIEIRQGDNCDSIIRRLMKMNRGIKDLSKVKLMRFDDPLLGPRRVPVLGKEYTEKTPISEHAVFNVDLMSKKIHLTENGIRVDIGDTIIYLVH
# T2: myc-tagged methionyl-tRNA synthetase (MRS) (UniProt P56192 1-900)
# T2 construct: also called myc-tagged MRS; not shown: myc tag
# T2 sequence (looked up): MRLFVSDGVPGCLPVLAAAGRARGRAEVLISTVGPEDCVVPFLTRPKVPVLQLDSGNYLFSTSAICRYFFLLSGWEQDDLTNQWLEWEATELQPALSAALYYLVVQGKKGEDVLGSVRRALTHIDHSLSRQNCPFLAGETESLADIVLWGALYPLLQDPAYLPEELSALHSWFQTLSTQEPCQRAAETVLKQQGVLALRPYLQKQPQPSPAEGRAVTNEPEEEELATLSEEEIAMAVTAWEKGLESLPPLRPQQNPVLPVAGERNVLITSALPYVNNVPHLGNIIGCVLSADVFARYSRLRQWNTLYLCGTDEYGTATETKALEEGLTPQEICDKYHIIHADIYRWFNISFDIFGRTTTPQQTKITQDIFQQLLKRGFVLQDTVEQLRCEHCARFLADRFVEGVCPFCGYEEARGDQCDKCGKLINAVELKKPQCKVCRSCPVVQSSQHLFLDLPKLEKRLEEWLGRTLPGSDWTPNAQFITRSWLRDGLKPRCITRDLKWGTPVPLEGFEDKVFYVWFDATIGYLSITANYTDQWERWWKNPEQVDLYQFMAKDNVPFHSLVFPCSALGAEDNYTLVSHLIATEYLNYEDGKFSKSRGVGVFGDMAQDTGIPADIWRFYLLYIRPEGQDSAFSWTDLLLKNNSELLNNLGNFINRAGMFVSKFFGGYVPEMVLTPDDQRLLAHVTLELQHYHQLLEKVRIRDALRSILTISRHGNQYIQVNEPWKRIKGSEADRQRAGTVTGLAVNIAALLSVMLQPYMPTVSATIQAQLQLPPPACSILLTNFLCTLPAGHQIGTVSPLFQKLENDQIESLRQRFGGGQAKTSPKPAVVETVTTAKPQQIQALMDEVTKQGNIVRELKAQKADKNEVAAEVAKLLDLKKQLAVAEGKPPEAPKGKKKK
# T3: myc-tagged isoleucyl-tRNA synthetase (IRS) (UniProt P41252 1-1262)
# T3 construct: also called myc-tagged IRS; not shown: myc tag
# T3 sequence (looked up): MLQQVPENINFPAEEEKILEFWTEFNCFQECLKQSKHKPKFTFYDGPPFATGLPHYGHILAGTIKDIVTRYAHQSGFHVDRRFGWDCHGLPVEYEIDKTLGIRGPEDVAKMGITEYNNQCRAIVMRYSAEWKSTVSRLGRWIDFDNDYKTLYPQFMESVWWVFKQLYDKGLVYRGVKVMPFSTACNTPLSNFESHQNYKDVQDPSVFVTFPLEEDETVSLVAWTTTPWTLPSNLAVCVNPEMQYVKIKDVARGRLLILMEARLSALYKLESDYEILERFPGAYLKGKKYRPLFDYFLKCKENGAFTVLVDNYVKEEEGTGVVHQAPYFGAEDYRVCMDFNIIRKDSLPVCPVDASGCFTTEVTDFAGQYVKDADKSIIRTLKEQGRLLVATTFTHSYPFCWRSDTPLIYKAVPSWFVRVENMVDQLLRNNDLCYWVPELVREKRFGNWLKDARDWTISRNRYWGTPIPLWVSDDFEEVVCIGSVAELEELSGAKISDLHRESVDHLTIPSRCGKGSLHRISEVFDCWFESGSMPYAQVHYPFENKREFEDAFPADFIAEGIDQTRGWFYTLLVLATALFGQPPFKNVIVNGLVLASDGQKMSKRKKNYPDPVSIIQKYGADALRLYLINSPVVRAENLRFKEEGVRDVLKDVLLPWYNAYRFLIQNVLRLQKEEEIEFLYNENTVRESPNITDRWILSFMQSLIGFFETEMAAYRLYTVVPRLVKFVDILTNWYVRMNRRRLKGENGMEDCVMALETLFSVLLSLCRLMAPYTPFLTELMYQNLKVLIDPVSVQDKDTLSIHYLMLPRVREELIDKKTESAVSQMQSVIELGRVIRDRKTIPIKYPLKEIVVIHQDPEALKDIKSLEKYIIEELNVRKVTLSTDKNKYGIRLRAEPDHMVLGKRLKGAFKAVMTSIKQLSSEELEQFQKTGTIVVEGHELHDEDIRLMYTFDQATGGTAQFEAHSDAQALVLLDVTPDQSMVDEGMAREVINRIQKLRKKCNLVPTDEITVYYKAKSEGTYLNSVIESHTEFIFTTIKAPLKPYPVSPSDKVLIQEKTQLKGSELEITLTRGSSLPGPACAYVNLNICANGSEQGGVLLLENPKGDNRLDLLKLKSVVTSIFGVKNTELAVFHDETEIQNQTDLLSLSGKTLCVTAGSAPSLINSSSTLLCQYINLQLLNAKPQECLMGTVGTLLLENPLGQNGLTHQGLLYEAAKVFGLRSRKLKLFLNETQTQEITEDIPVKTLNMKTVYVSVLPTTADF
# B1: GST-LRS fragment 971-1176 (enzyme)
# chain: VIASELGSMPELKKYMKKVMPFVAMIKENLEKMGPRILDLQLEFDEKAVLMENIVYLTNSLELEHIEVKFASEAEDKIREDCCPGKPLNVFRIEPGVSVSLVNPQPSNGHFSTKIEIRQGDNCDSIIRRLMKMNRGIKDLSKVKLMRFDDPLLGPRRVPVLGKEYTEKTPISEHAVFNVDLMSKKIHLTENGIRVDIGDTIIYLVH
# notes: not shown: glutathione S-transferase (GST) fusion tag
# B2: endogenous RagD of 293T cells (enzyme, UniProt Q9NQL2 1-400, looked up)
# chain: MSQVLGKPQPQDEDDAEEEEEEDELVGLADYGDGPDSSDADPDSGTEEGVLDFSDPFSTEVKPRILLMGLRRSGKSSIQKVVFHKMSPNETLFLESTNKICREDVSNSSFVNFQIWDFPGQIDFFDPTFDYEMIFRGTGALIFVIDSQDDYMEALARLHLTVTRAYKVNTDINFEVFIHKVDGLSDDHKIETQRDIHQRANDDLADAGLEKIHLSFYLTSIYDHSIFEAFSKVVQKLIPQLPTLENLLNIFISNSGIEKAFLFDVVSKIYIATDSTPVDMQTYELCCDMIDVVIDISCIYGLKEDGAGTPYDKESTAIIKLNNTTVLYLKEVTKFLALVCFVREESFERKGLIDYNFHCFRKAIHEVFEVRMKVVKSRKVQNRLQKKKRATPNGTPRVLL
# notes: Endogenous protein in 293T cell lysates, detected with anti-RagD antibody
# B3: GST-RagD (RagD-(1-400)) (enzyme, UniProt Q9NQL2 1-400, looked up)
# chain: B2 chain
# notes: range 1-400; Expressed in E. coli BL21, purified on GSH agarose; also called peptide spanning aa 1-400 of RagD; RagD protein; not shown: glutathione S-transferase (GST) tag from pGEX4T3 vector (GE healthcare)
# B4: HA-tagged RagD (enzyme, UniProt Q9NQL2 1-400, looked up)
# chain: B2 chain
# notes: Expressed in 293T cells, used as cell lysate; also called HA-RagD; not shown: HA tag
# Legend:
# HA-tagged RagD = biological target: B4; experiment: in vitro GST pull-down of HA-RagD lysate, anti-HA blot (FIG. 3h)
# Experimental: Binding assay was conducted in 25 mM Tris-HCl buffer (pH7.4) containing 10 mM NaCl, 1 mM MgCl₂, 1 mM EDTA, 0.5 mM EGTA, and 0.5% Triton X-100.
# [1] = biological target: T4, endogenous LRS of 293T cells (Homo sapiens (Human), UniProt Q9P2J5 1-1176); experiment: immunoprecipitation of 293T lysates with anti-Raptor antibody, anti-LRS and anti-RagD blots (FIG. 4a)
# T4 construct: Endogenous protein in HEK293T cell lysates, detected with anti-LRS antibody
# Experimental: 293T cells were starved for amino acids for 1 hour and re-stimulated with amino acids for 5 min.
# His-LRS-(759-1176) = biological target: T1, His-LRS-(759-1176); experiment: ELISA competition: His-LRS-(759-1176) added to GST-RagD on plate-coated His-LRS-(1-1176) (FIG. 13b)
# His-LRS-(1-1176) = biological target: T5, His-LRS-(1-1176) (Homo sapiens (Human), UniProt Q9P2J5 1-1176); experiment: ELISA: plate coated with LRS-(1-1176) (500 ng/ml), GST-RagD detected with anti-GST antibody (FIG. 13a)
# T5 construct: Expressed in E. coli BL21(DE3), purified on Ni-chelating agarose, coated on the ELISA plate; not shown: His tag from pET16a vector
# [2] = biological target: T2, myc-tagged methionyl-tRNA synthetase …; experiment: co-immunoprecipitation with anti-HA antibody, anti-myc blot (FIG. 3c)
# Experimental: (§1) The co-precipitated myc-tagged protein was determined by immunoblotting with anti-myc antibodies.
# [3] = biological target: T3, myc-tagged isoleucyl-tRNA synthetase …; experiment: as above
# Experimental: as §1
# [4] = biological target: T6, myc-tagged glutamyl-prolyl-tRNA synthetase (EPRS) (UniProt P07814 1-1512); experiment: as above
# T6 construct: also called myc-tagged EPRS; not shown: myc tag
# Experimental: as §1
# T6 sequence (P07814 whole entry): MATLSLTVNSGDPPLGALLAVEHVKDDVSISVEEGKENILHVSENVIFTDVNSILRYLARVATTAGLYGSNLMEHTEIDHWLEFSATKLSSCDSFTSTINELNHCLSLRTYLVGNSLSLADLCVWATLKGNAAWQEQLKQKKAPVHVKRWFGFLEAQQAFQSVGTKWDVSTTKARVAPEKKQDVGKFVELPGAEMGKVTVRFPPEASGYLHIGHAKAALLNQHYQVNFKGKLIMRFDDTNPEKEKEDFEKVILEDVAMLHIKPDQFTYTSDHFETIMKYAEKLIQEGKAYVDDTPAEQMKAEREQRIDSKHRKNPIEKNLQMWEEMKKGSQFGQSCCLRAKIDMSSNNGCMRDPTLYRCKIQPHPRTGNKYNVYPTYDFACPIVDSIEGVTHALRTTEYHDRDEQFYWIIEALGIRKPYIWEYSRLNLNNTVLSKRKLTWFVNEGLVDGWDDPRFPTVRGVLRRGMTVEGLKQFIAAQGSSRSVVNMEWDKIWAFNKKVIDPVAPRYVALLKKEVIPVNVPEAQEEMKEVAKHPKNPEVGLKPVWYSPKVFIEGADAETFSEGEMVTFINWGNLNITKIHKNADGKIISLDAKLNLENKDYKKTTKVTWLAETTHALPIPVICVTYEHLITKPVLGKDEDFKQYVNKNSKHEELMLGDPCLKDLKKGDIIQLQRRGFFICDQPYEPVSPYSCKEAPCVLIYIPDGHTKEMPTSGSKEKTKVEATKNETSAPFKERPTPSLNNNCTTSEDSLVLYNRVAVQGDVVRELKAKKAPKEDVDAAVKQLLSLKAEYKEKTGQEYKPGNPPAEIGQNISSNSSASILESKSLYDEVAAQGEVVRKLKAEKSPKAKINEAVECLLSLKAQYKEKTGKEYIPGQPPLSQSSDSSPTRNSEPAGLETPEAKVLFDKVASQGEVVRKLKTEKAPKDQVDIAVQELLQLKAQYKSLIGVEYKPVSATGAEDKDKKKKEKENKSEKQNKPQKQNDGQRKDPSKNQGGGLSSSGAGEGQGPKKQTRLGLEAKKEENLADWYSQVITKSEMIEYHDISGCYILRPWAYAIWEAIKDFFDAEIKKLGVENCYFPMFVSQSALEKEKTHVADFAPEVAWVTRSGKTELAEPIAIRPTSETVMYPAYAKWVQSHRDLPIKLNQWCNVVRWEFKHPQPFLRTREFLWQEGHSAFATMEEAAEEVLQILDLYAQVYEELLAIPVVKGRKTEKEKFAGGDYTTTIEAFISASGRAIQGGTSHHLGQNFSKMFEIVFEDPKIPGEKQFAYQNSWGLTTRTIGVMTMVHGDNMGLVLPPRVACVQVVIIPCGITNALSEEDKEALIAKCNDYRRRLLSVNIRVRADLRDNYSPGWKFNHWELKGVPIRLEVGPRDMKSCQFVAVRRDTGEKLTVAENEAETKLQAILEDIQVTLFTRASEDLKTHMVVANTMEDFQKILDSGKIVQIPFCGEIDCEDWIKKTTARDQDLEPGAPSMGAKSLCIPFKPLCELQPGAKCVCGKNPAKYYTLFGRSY
binder,measurement,setting,value
B1,binding result,HA-tagged RagD,no binding
B2,binding result,[1],binds
B3,binding result,His-LRS-(759-1176),binds
same,binding result,His-LRS-(1-1176),binds
B4,binding result,[2],no binding
same,binding result,[3],no binding
same,binding result,[4],no binding
